{"source": "patent US10758615B2", "about": "“Human monoclonal antibodies against orexin receptor type 1” (INSERM (INSTITUT NATIONAL DE LA SANTE ET DE LA RECHERCHE …, priority 2015, dated 2020)", "key": {"[1]": {"test_system": "HEK-OX1R cells expressing recombinant OX1R", "experiment": "Apoptosis in HEK-OX1R cells (annexin V-PE binding, Guava nexin kit)", "format": "cell-based, human"}, "HT-29 cells": {"test_system": "HT-29 cells", "experiment": "Growth of tumors from xenografted human HT-29 cells in nude mice", "format": "in vivo", "conditions": "ip, 2 injections/week, Day 43", "method": "FIG. 8: Effect of inoculation of orexin-A and C2 antibody on the growth of tumors developed by xenografted human HT-29 cells in nude mice. Colon adenocarcinoma derived cells, HT-29, were inoculated in the flank of nude mice at day 0. Mice were injected at day 1 (2 injections/week) intraperitoneally with 100 μl of orexin-A solution (1.4 μmoles of orexin-A/Kg (white circles)) or with 100 μl of C2 antibody solution (0.065 μmoles/Kg (black triangles) or 0.02 μmoles/Kg (white triangles)) or with 100 μl of PBS (black circles) for control. The inventors have tested the ability of C2 antibody to inhibit the tumor development of xenografted nude mice with the human colon adenocarcinoma cell line, HT-29. After subcutaneous injection of 1.5×10^6 HT-29 cells in mice, animals were treated by 2 intraperitoneal (ip) injection/week of Orexin-A (100 μg/injection corresponding to 1.4 μmoles of orexin-A/Kg) or two doses of C2 antibody (200 μg/injection or 50 μg/injection corresponding to 0.065 μmoles/Kg and 0.02 μmoles/Kg, respectively). Control was determined by ip injection of 100 μl of PBS. The experiment was conducted during 45 days and the tumor volume was estimated by measuring the short and long axes of developedtumors each ⅔ days."}, "[2]": {"test_system": "HEK-OX1R cells expressing recombinant OX1R", "experiment": "Cell growth of HEK-OX1R cells (cell counting)", "format": "cell-based, human", "conditions": "0.1 μM, 48 h"}, "[3]": {"test_system": "CHO cells lines transfected with OX1R of mouse", "experiment": "Cross-reaction: cells transfected with mouse OX1R", "format": "cell-based", "conditions": "0.1 μM, 48 h"}, "[4]": {"test_system": "CHO cells lines transfected with OX1R of rat", "experiment": "Cross-reaction: cells transfected with rat OX1R", "format": "cell-based", "conditions": "0.1 μM, 48 h"}, "SW48 cells": {"test_system": "SW48 cells", "experiment": "Cell growth of colon cancer cell line SW48", "format": "cell-based", "conditions": "0.1 μM, 48 h", "method": "(§1) Cells were treated for 48 h with 0.1 μM of each compound and then cells were counted. Results were expressed as the percentage of untreated cell number (Control).\n(§2) We have tested the ability of antibodies to inhibit the cellular growth in cancer cell lines derived from colon cancer (SW48, LoVo and HCT-116 cells) and pancreas cancer (AsPC-1 cells). […] D4 and H7 have a weak effect. […] As previously described (see above) orexins are able to induce a mitochondrial apoptosis in cancer cell lines. We test the ability of antibodies to induce apoptosis in HEK-OX1R cells and colonic cancer cell line LoVo. […] This effect was dose-dependent. Indeed when HEK-OX1R cells were treated with 0.01 μM of C2 antibody, cell apoptosis was only of 6±0.7% of total cells."}, "LoVo cells": {"test_system": "LoVo cells", "experiment": "Cell growth of colon cancer cell line LoVo", "format": "cell-based", "conditions": "0.1 μM, 48 h", "method": "as §1, §2"}, "AsPC-1 cells": {"test_system": "AsPC-1 cells", "experiment": "Cell growth of pancreas cancer cell line AsPC-1", "format": "cell-based", "conditions": "0.1 μM, 48 h", "method": "as §1, §2"}, "LoVo cancer cell line": {"test_system": "LoVo cancer cell line", "experiment": "Apoptosis in LoVo cancer cell line", "format": "cell-based", "from_the_text": "as §2"}, "[5]": {"conditions": "100 μg/injection (1.4 μmoles/Kg)"}, "[6]": {"conditions": "200 μg/injection (0.065 μmoles/Kg)"}, "[7]": {"conditions": "low dose, 50 μg/injection (0.02 μmoles/Kg)"}}}
{"molecule": "O=S(=O)(O)c1ccc2cc(N=Nc3cc(S(=O)(=O)O)c4cccnc4c3O)ccc2c1", "note": "[NSC-87877, reference compound]", "values": [{"measurement": "effect of SHP-2 inhibitor on orexin-induced apoptosis", "setting": "[1]; NSC-87877 50 μM", "value": "blocks orexin-induced apoptosis"}]}
{"molecule": "Orexin-A (QPLPDCCRQKTCSCRLYELLHGAGNHAAGILTL) [orexin A, a 33 amino acid neuropeptide, native OX1R ligand, reference compound]", "values": [{"measurement": "inhibition of tumor growth", "setting": "HT-29 cells; [5]", "value": "about 65%"}, {"measurement": "tumor volume", "setting": "HT-29 cells; [5]", "value": "~570±100", "unit": "mm^3"}]}
{"molecule": "C2: human monoclonal anti-OX1R antibody from phage display; VH SEQ ID NO:1, VL SEQ ID NO:2 (antibody, V domains shown, Synthetic VH sequence of C2; Synthetic VL sequence of C2) VH: EVQLVESGGSLVKPGGSLRLSCAASGFTFSNSYMNWVRQAPGKGLEWISSIYGSSRYIDYADFVKGRFTISRDNATNSLYLQMNSLRAEDTAVYYCVRSSSYYGSGMDVWGRGTLVTVSS VL: QSVLTQPASVSGSPGQSITISCAGTSSDVGGYGSVSWYQQHPGKAPKLMIYYDSYRPSGVSNRFSGSKSGNTASLTISGLQAEDEADYYCSSNTNSSTRVFGGGTKLAVLG", "values": [{"measurement": "reduction of HEK-OX1R cell number", "setting": "[2]; versus untreated cells", "value": "~37±3", "unit": "%"}, {"measurement": "inhibition of HEK-OX1R cellular growth in the presence of SHP inhibitor", "setting": "[2]; with 50 μM NSC 87877", "value": "totally reversed"}, {"measurement": "promotion of apoptosis of cells transfected with mouse OX1R", "setting": "[3]", "value": "able to promote apotosis"}, {"measurement": "promotion of apoptosis of cells transfected with rat OX1R", "setting": "[4]", "value": "able to promote apotosis"}, {"measurement": "inhibition of cell growth in SW48 cells", "setting": "SW48 cells", "value": "inhibit the cell growth in SW48 cells similarly to OxB"}, {"measurement": "inhibition of cell growth in LoVo cells", "setting": "LoVo cells", "value": "inhibit the cell growth in LoVo cells similarly to OxB"}, {"measurement": "inhibition of cell growth in AsPC-1 cells", "setting": "AsPC-1 cells", "value": "cell growth inhibition similar to OxB effect"}, {"measurement": "apoptosis in HEK-OX1R cells, % of total cells", "setting": "[1]; 0.01 μM", "value": "6±0.7", "unit": "%"}, {"measurement": "apoptosis in HEK-OX1R cells, % of total cells", "setting": "[1]; 0.1 μM, 48 h", "value": "16±2", "unit": "%"}, {"measurement": "apoptosis and growth inhibition in the presence of SHP inhibitor", "setting": "[1]; with NSC 87877", "value": "totally abolished"}, {"measurement": "apoptotic response in LoVo cancer cell line", "setting": "LoVo cancer cell line; 0.01 μM", "value": "strongly reduce the apoptotic response"}, {"measurement": "induction of apoptosis in LoVo cancer cell line", "setting": "LoVo cancer cell line; 0.1 μM, 48 h", "value": "able to induce apoptosis"}, {"measurement": "reduction of tumor development", "setting": "HT-29 cells; [6]", "value": "about 60%"}, {"measurement": "tumor volume", "setting": "HT-29 cells; [6]", "value": "~650±98", "unit": "mm^3"}, {"measurement": "inhibition of tumor growth", "setting": "HT-29 cells; [7]", "value": 45, "unit": "%"}, {"measurement": "tumor volume", "setting": "HT-29 cells; [7]", "value": "~885±130", "unit": "mm^3"}]}
